pEC50: −log10 of the molar value. Bounds are passed on as bounds.

The pEC50 is −log10 of the EC50, conventionally taken in molar units.

The target in assay [1] is human MSLN-hFc protein (Acro, Cat. No. MSN-H5253) (human) (UniProt Q13421). Kind of assay: ELISA, coated human MSLN-hFc, antibody 100 nM. A general note: An ELISA detects its analyte on a solid surface through an enzyme-linked reagent.
For assay [2] the target is unchanged. Kind of assay: ELISA, coated human MSLN-hFc, antibody 0.1 nM.
Assay [3] shares this target. Kind of assay: ELISA, coated human MSLN-hFc, antibody 1 nM.
Assay [4] shares this target. Briefly: ELISA, coated human MSLN-hFc, antibody 0.001 nM.
For assay [5] the target is unchanged. Kind of assay: ELISA, coated human MSLN-hFc, antibody 100 nM. This is another data set of the same source.
Assay [6] has the same target. Briefly: ELISA, coated human MSLN-hFc, antibody 10 nM.
Assay [7] shares this target. Briefly: ELISA, coated human MSLN-hFc, antibody 0.001 nM. The source holds these as a separate data set.
The target is the same in assay [8]. Briefly: ELISA, coated human MSLN-hFc, antibody 0.0001 nM.
For assay [9] the target is unchanged. Kind of assay: ELISA, coated human MSLN-hFc, antibody 10 nM. The source holds these as a separate data set.
Assay [10] has the same target. Kind of assay: ELISA, coated human MSLN-hFc, antibody 1 nM. This is another data set of the same source.
Assay [11] shares this target. Briefly: ELISA, coated human MSLN-hFc, antibody 0.01 nM.
Assay [12] shares this target. Briefly: ELISA, coated human MSLN-hFc, antibody 0.1 nM. The source holds these as a separate data set.
Assay [13] shares this target. Kind of assay: ELISA, coated human MSLN-hFc, antibody 0.01 nM. The source holds these as a separate data set.
Assay [14] addresses monkey MSLN full-length protein (NCBI: XP_028696439.1) on HEK293T cells (monkey). Kind of assay: FACS on HEK293T-monkey MSLN cells; antibody 4 nM.
For assay [15] the target is unchanged. Briefly: FACS on HEK293T-monkey MSLN cells; antibody 0.032 nM.
The target is the same in assay [16]. Kind of assay: FACS on HEK293T-monkey MSLN cells; antibody 20 nM.
Assay [17] has as its target monkey MSLN full-length protein expressed on HEK293T cells (HEK293T-monkey MSLN) (monkey). Kind of assay: FACS on HEK293T-monkey MSLN cells.
Assay [18] addresses monkey MSLN full-length protein (NCBI: XP_028696439.1) on HEK293T cells (monkey). Kind of assay: FACS on HEK293T-monkey MSLN cells; antibody 0.0064 nM.
Assay [19] has the same target. Briefly: FACS on HEK293T-monkey MSLN cells; antibody […].
The target is the same in assay [20]. Briefly: FACS on HEK293T-monkey MSLN cells; antibody 100 nM.
Assay [21] has the same target. Briefly: FACS on HEK293T-monkey MSLN cells; antibody 0.00128 nM.
Assay [22] has the same target. Kind of assay: FACS on HEK293T-monkey MSLN cells; antibody 0.8 nM.
Assay [23] concerns the target human MSLN-FL-his protein (human) (UniProt Q13421). Briefly: ELISA, antibody 100 nM.
The target in assay [24] is human MSLN-R3-3 polypeptide (human). Briefly: ELISA, coated antigen, antibody 0.1 nM.
For assay [25] the target is unchanged. Kind of assay: ELISA, coated antigen, no antibody (blank).
The target is the same in assay [26]. Briefly: ELISA, coated antigen, antibody 0.0001 nM.
The target is the same in assay [27]. Kind of assay: ELISA, coated antigen, antibody 0.01 nM.
The target is the same in assay [28]. Briefly: ELISA, coated antigen, antibody 1 nM.
Assay [29] has the same target. Briefly: ELISA, coated antigen, antibody 0.001 nM.
The target of assay [30] is human MSLN-R3-rFc protein (human) (UniProt Q13421). Briefly: ELISA, antibody 1 nM.
Sequence of human MSLN-R3-rFc protein (human) (Q13421 495-606): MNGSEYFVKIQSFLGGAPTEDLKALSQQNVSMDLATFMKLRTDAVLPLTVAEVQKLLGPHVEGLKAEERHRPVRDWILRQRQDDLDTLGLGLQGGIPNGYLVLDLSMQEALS
Assay [31] has the same target. Briefly: ELISA, antibody 20 nM.
Assay [32] shares this target. Kind of assay: ELISA, antibody 0.0064 nM.
Assay [33] shares this target. Briefly: ELISA, antibody 100 nM.
Assay [34] has the same target. Briefly: ELISA, antibody 4 nM.
Assay [35] has as its target monkey MSLN full-length protein (NCBI: XP_028696439.1) expressed on HEK293T-monkey MSLN cells (monkey). Briefly: FACS on HEK293T-monkey MSLN cells.
The target of assay [36] is human MSLN full-length protein (NCBI: AAH09272.1) expressed on HEK293T-hMSLN-B8 cells (human) (UniProt Q13421). Briefly: FACS on HEK293T-hMSLN-B8 cells.
Sequence of human MSLN full-length protein (NCBI: AAH09272.1) expressed on HEK293T-hMSLN-B8 cells (human) (Q13421 other isoform, or with tags, fused parts or gaps limits assumed): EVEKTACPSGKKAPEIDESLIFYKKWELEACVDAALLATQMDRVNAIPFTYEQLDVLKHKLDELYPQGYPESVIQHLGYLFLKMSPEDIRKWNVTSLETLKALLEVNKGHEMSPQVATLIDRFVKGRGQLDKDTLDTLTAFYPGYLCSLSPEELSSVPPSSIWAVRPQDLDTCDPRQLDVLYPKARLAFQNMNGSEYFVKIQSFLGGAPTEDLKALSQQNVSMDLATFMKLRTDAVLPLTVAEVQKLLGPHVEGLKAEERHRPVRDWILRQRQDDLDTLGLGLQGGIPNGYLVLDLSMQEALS
Assay [37] deals with human MSLN protein endogenously expressed on OVCAR3 tumor cells (human) (UniProt Q13421). Kind of assay: FACS on OVCAR3 cells.
Sequence of human MSLN protein endogenously expressed on OVCAR3 tumor cells (human) (Q13421 other isoform, or with tags, fused parts or gaps): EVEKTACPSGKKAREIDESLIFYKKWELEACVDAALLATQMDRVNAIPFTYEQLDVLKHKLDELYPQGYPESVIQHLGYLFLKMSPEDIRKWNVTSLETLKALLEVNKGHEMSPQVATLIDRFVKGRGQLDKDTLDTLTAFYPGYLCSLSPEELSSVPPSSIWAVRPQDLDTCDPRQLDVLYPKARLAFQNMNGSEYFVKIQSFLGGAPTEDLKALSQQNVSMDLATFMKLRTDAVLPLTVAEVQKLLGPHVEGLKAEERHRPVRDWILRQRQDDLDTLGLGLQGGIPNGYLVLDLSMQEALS
The target in assay [38] is human MSLN-R3 protein (Met487-Ser606 of NCBI AAH09272.1) expressed on HEK293T-hMSLN-R3 cells (human) (UniProt Q13421). Kind of assay: FACS on HEK293T-hMSLN-R3 cells.
Sequence of human MSLN-R3 protein (Met487-Ser606 of NCBI AAH09272.1) expressed on HEK293T-hMSLN-R3 cells (human) (Q13421 495-614): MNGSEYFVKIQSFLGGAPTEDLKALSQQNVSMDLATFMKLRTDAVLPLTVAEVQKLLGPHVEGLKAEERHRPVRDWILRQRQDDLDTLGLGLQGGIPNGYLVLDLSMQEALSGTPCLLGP

Sequence of human MSLN-hFc protein (Acro, Cat. No. MSN-H5253) (human) (Q13421 other isoform, or with tags, fused parts or gaps limits assumed): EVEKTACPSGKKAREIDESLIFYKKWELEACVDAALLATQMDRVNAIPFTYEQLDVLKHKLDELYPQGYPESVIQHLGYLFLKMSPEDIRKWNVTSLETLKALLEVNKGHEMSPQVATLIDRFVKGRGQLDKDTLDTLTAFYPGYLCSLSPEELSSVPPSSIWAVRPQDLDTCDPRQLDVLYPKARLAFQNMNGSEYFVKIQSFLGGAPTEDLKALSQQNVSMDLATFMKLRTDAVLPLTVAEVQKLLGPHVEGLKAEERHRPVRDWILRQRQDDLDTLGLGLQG
Sequence of human MSLN-FL-his protein (human) (Q13421 other isoform, or with tags, fused parts or gaps): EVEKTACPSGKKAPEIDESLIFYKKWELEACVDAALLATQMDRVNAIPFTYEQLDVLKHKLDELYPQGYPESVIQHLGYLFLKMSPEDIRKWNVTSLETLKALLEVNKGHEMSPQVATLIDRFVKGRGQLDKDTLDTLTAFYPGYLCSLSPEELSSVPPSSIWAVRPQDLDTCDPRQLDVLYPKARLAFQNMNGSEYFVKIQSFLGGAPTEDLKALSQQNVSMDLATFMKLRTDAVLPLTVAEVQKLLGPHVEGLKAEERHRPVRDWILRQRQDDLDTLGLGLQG

For “Tab084 (NC), m971 VH-(G4S)3-VL-his (scFv)”, the OD450 nm was 0.05 in [1]; 0.05 in assay [2]; 0.05 in assay [3]; 0.06 in [4]; 0.07 in assay [5]; 0.05 in [6]. Besides, the OD450 nm in assay [7] is 0.05; in assay [8] it was 0.05; in assay [9], 0.07; in assay [10], 0.06; in assay [11], 0.06; in [12], 0.07. In addition, the OD450 nm in assay [13] amounted to 0.05.
For Tab106 (YP218, hIgG1) (antibody), the FACS fluorescence intensity in assay [14] was 2440; in assay [15], 142; in [16], 2660; in assay [18] it was 100; in assay [19] it was 313; in assay [20], 3290. The FACS fluorescence intensity in assay [21] came out at 90; in assay [22] it was 860. For the same substance, the negative logarithm of the EC50 (pEC50) in [17] is above 9.30. Moreover, the Maximum mean fluorescence intensity in assay [17] was 12400.
Consider “Tab131 (m912, scFv-hIgG1 Fc) (Fc fusion)”, for which the FACS fluorescence intensity worked out at 86 in assay [14]; 106 in assay [15]; 85 in assay [16]; 85 in [18]; 83 in assay [19]; 87 in [20]. Also, the FACS fluorescence intensity in assay [21] worked out at 93; in assay [22] it was 87. The substance further gave an OD450 nm in assay [23] of 0.16.
Take “anti-hel-hIgG1 (negative control antibody against hen egg lysozyme)”: the OD450 came to 0.06 in assay [24]; 0.07 in assay [25]; 0.07 in assay [26]; 0.06 in assay [27]; 0.06 in assay [28]; 0.06 in assay [29].
On to “anti-human MSLN antibody (purchased from Acro, Cat. No. MSN-M30)”, for which the OD450 nm turned out to be 0.11 in assay [30]; 0.86 in assay [31]; 0.16 in [32]; 1.11 in [33]; 0.23 in [34].
“hIgG1 negative control antibody (anti-hel-hIgG1, against hen egg lysozyme)”: the Maximum mean fluorescence intensity in assay [35] is 102; in assay [36], 267; in assay [37], 122; in [38], 102.

For the origin of these results see patent publication US20250250357A1.
